Results as given in US10227575B2, “Multi-domain enzymes having cutinase activity, compositions comprising same and uses thereof” (OZYMES, priority 2015, dated 2019).
Where two headings read alike, the source gives them in different places. Marks after values point to notes of the source that are not given here.

How the values were obtained:
Temperature optimum = assay type: biochemical; conditions: for Relative activity at temperature: highest activity set to 100%
Protocol: For estimation of the temperature optimum, buffer containing pNP-palmitate (see esterase assay in Example 20.1) was pre-incubated to reach the desired temperature, enzyme was then added, and the formation of pNP was assayed. For this experiment, Tris/HCl buffer was replaced with sodium phosphate buffer (50 mM, pH 8.0) to avoid a pH shift at the different temperatures.

[1] = Enzymatic activity in the presence of organic solvents; assay type: biochemical; conditions: buffer only = 100%
Protocol: Enzyme activity in various organic solvents was studied over a concentration range of 1-30% at room temperature. pNP-palmitate was completely dissolved in 2-propanol (8 mM) and then added to 50 mM Tris/HCl buffer pH 8.0 containing up to 30% organic solvent to give a final substrate concentration of 0.8 mM. The reaction was started by addition of enzyme and the formation of pNP was assayed as described above in Example 20.1.

pH dependence of enzymes = assay type: biochemical; conditions: for Relative activity (%): highest activity = 100%
Protocol: The influence of different pH values (from 5.5 to 11) on the activities of the purified enzymes was examined in three buffer systems (sodium acetate, sodium phosphate, and Tris-HCl) at room temperature using pNP-palmitate (see esterase assay in Example 20.1) as a substrate at a final substrate concentration of 0.8 mM.

[2] = Enzyme substrate profiles, esterase assays; assay type: biochemical; conditions: highest activity towards a specific substrate set to 100%
Protocol: (§1) Esterase activity was determined by monitoring the formation of para-nitrophenol (pNP) at 410 nm from various pNP-esters using a Beckman UV spectrophotometer (model DU 640). Substrates were completely dissolved in 2-propanol (8 mM) and were then added to 50 mM Tris/HCl buffer pH 8.0 to give a final substrate concentration of 0.8 mM. The reaction (1 mL) was started by adding an appropriate amount of enzyme. One enzyme unit (U) was defined as the amount of enzyme that produced 1 μmol of product (pNP) per min; specific activity was expressed as U/mg protein. A molar extinction coefficient of 15 mM^−1 cm^−1 was used for the calculation.

[3] = Stability in the presence of hydrogen peroxide; assay type: physicochemical
Protocol: as §1
Purified cutinases were incubated at room temperature in the presence of 0, 30, 100, 300, 1500, and 3000 ppm of hydrogen peroxide. Residual enzyme activity was assayed (see Example 20.1) after 1, 2, 3, and 7 days of incubation.

[4] = Specific activity of purified enzymes (standard esterase assay); assay type: biochemical
Protocol: In summary, using different techniques for enzyme purification, pure enzyme preparations were obtained and tested for their activity towards a standard esterase substrate, pNP-palmitate. Enzymatic activities of the purified variants are summarized below:
as §1

[5] = Activity of crude culture supernatants from bioreactor; assay type: biochemical; conditions: pNP-dodecanoate
[6] = assay type: biochemical, Petromyces albertensis; conditions: for Residual ochratoxin A (%): 5 ppm Ochratoxin A, 37° C., relative to incubation without enzyme
Protocol: The enzymes purified in Example 18 were tested for their ability to degrade the mycotoxin Ochratoxin A. In general, the mycotoxin was incubated with different concentrations of the enzyme, and the remaining mycotoxin concentration, as well the respective degradation products, were monitored by LC-MS over time (where possible/applicable).
Reactions were performed in 1 mL volumes in glass HPLC vials comprising the mycotoxin to be analyzed and the enzyme to be tested. For Ochratoxin A (Petromyces albertensis, 01877 Sigma), 50 μL of a 100 ppm stock solution in methanol (final concentration of 5 ppm) was added to 910 μL of distilled water and 40 μL of the enzyme to be tested. In control reactions, the volume of enzyme was substituted with distilled water. The reactions were incubated in an Eppendorf thermomixer at 37° C. with shaking at 750 rpm. 100 μL samples were withdrawn at 1, 4 and 24 h for chromatographic analysis.
Mycotoxin analysis was carried out using a Shimadzu LCMS-2020 equipped with a UV/vis detector. Chromatographic separation of 10 μL injected sample was carried out at 30° C. on a Kinetex 2.6 μm XB-C18 column 100 Å (50×2.1 mm) using a binary gradient. For Ochratoxin A, eluent A consisted of water and eluent B consisted of acetonitrile and the UV detection wavelength was 360 nm.
The five enzymes tested were screened for their ability to degrade 5 ppm (5,000 ppb) Ochratoxin A at 37° C.

B1: Am-Kr: chimeric variant: AmCUT fused to the T/P-rich linker domain and polymer binding domain of KrCUT, SEQ ID NO: 27 (protein)
chain: ACSDLEIVFARGSGEAPGLGITGTPLVSDVKSALSSASVSSYAVDYAASYDQTSAGPGATDMSNHIKSTAAACPDTKFAIGGYSQGASVTDIAIGIRTYLGTGQTIPTELAPRVVAVIAFGNPLGLYGQTIKTASPTYGPKSLEFCNRGDNVCGGTGTGPGYGHLSYARDGSVDQAAAFIAKQYNASAGTPTTPTPTPTPTPVPTTCVRDSTRDHVAADRAVSLYGRAYARGSRDSLGATSSYNVVSLQQVEGGWRLVTAC
modifications: YebF carrier; Am-Kr variant
- Temp. opt. (° C.) (Temperature optimum): 45 °C
- Relative activity at temperature (Temperature optimum; 20 ° C.): 50 ± 2%
- Relative activity at temperature (Temperature optimum; 25 ° C.): 61 ± 2%
- Relative activity at temperature (Temperature optimum; 30 ° C.): 69 ± 2%
- Relative activity at temperature (Temperature optimum; 35 ° C.): 78 ± 1%
- Relative activity at temperature (Temperature optimum; 40 ° C.): 87 ± 2%
- Relative activity at temperature (Temperature optimum; 45 ° C.): 100* %
- Relative activity at temperature (Temperature optimum; 50 ° C.): 81 ± 10%
- Relative activity at temperature (Temperature optimum; 55 ° C.): 37 ± 5%
- Relative activity at temperature (Temperature optimum; 60 ° C.): 9 ± 1%
- Relative enzymatic activity (%) ([1]; 2-Propanol 5% (v/v)): 70 ± 10%
- Relative enzymatic activity (%) ([1]; 2-Propanol 10% (v/v)): 23 ± 2%
- Relative enzymatic activity (%) ([1]; Acetone 1% (v/v)): 118 ± 1%
- Relative enzymatic activity (%) ([1]; Acetone 5% (v/v)): 90 ± 14%
- Relative enzymatic activity (%) ([1]; Acetone 10% (v/v)): 74 ± 7%
- Relative enzymatic activity (%) ([1]; Dimethyl sulfoxide (DMSO) 10% (v/v)): 114 ± 2%
- Relative enzymatic activity (%) ([1]; Dimethyl sulfoxide (DMSO) 20% (v/v)): 90 ± 8%
- Relative enzymatic activity (%) ([1]; Dimethyl sulfoxide (DMSO) 30% (v/v)): 60 ± 5%
- Relative enzymatic activity (%) ([1]; Dimethylformamide (DMF) 5% (v/v)): 120 ± 11%
- Relative enzymatic activity (%) ([1]; Methanol 10% (v/v)): 87 ± 10%
- Relative enzymatic activity (%) ([1]; Methanol 20% (v/v)): 60 ± 13%
- pH opt. (pH dependence of enzymes): 9.5
- Relative activity (%) (pH dependence of enzymes; pH 6.5, sodium phosphate buffer): 23 ± 2%
- Relative activity (%) (pH dependence of enzymes; pH 7.0, sodium phosphate buffer): 46 ± 3%
- Relative activity (%) (pH dependence of enzymes; pH 7.5, sodium phosphate buffer): 54 ± 3%
- Relative activity (%) (pH dependence of enzymes; pH 8.0, Tris/HCl): 84 ± 2%
- Relative activity (%) (pH dependence of enzymes; pH 8.5, Tris/HCl): 88 ± 9%
- Relative activity (%) (pH dependence of enzymes; pH 9.0, Tris/HCl): 91 ± 5%
- Relative activity (%) (pH dependence of enzymes; pH 9.5, Tris/HCl): 100* %
- Relative activity (%) (pH dependence of enzymes; pH 10, Tris/HCl): 47 ± 4%
- Relative activity (%) (pH dependence of enzymes; pH 10.5, Tris/HCl): 10 ± 1%
- Relative activity, pNP-acetate (C2) [2]: 9 ± 1%
- Relative activity, pNP-butyrate (C4) [2]: 75 ± 8%
- Relative activity, pNP-caprylate (C8) [2]: 100* %
- Relative activity, pNP-decanoate (C10) [2]: 72 ± 2%
- Relative activity, pNP-myristate (C14) [2]: 46 ± 8%
- Relative activity, pNP-palmitate (C16) [2]: 49 ± 6%
- Relative activity (%) after exposure to hydrogen peroxide ([3]; H2O2 30 ppm, Day 0): 92 ± 3%
- Relative activity (%) after exposure to hydrogen peroxide ([3]; H2O2 30 ppm, Day 1): 90 ± 15%
- Relative activity (%) after exposure to hydrogen peroxide ([3]; H2O2 30 ppm, Day 2): 82 ± 8%
- Relative activity (%) after exposure to hydrogen peroxide ([3]; H2O2 30 ppm, Day 3): 71 ± 4%
- Relative activity (%) after exposure to hydrogen peroxide ([3]; H2O2 30 ppm, Day 7): 63 ± 5%
- Relative activity (%) after exposure to hydrogen peroxide ([3]; H2O2 100 ppm, Day 0): 101 ± 3%
- Relative activity (%) after exposure to hydrogen peroxide ([3]; H2O2 100 ppm, Day 1): 97 ± 5%
- Relative activity (%) after exposure to hydrogen peroxide ([3]; H2O2 100 ppm, Day 2): 83 ± 2%
- Relative activity (%) after exposure to hydrogen peroxide ([3]; H2O2 100 ppm, Day 3): 73 ± 5%
- Relative activity (%) after exposure to hydrogen peroxide ([3]; H2O2 100 ppm, Day 7): 69 ± 4%
- Relative activity (%) after exposure to hydrogen peroxide ([3]; H2O2 300 ppm, Day 0): 100 ± 9%
- Relative activity (%) after exposure to hydrogen peroxide ([3]; H2O2 300 ppm, Day 1): 88 ± 5%
- Relative activity (%) after exposure to hydrogen peroxide ([3]; H2O2 300 ppm, Day 2): 83 ± 2%
- Relative activity (%) after exposure to hydrogen peroxide ([3]; H2O2 300 ppm, Day 3): 72 ± 10%
- Relative activity (%) after exposure to hydrogen peroxide ([3]; H2O2 300 ppm, Day 7): 61 ± 4%
- Relative activity (%) after exposure to hydrogen peroxide ([3]; H2O2 1,500 ppm, Day 0): 91 ± 8%
- Relative activity (%) after exposure to hydrogen peroxide ([3]; H2O2 1,500 ppm, Day 1): 97 ± 9%
- Relative activity (%) after exposure to hydrogen peroxide ([3]; H2O2 1,500 ppm, Day 2): 75 ± 15%
- Relative activity (%) after exposure to hydrogen peroxide ([3]; H2O2 1,500 ppm, Day 3): 73 ± 3%
- Relative activity (%) after exposure to hydrogen peroxide ([3]; H2O2 1,500 ppm, Day 7): 60 ± 6%
- Relative activity (%) after exposure to hydrogen peroxide ([3]; H2O2 3,000 ppm, Day 0): 86 ± 6%
- Relative activity (%) after exposure to hydrogen peroxide ([3]; H2O2 3,000 ppm, Day 1): 68 ± 9%
- Relative activity (%) after exposure to hydrogen peroxide ([3]; H2O2 3,000 ppm, Day 2): 63 ± 4%
- Relative activity (%) after exposure to hydrogen peroxide ([3]; H2O2 3,000 ppm, Day 3): 67 ± 2%
- Relative activity (%) after exposure to hydrogen peroxide ([3]; H2O2 3,000 ppm, Day 7): 55 ± 3%
- Relative activity (%) after exposure to hydrogen peroxide ([3]; H2O2 3,000 ppm, Day 7, listed as Am—Kr): 55%
- Enzymatic activity of the purified variant ([4]; pNP-palmitate): 174 ± 11 U/mg
- Spec. Act. (U/mg) ([4]; towards pNP-palmitate (standard assay)): 174 ± 11 U/mg
- activity of crude culture supernatant [5]: 0.5 U/mL
- Residual ochratoxin A (%) ([6]; 1 h): 6%
- Residual ochratoxin A (%) ([6]; 4 h): 0%
- Residual ochratoxin A (%) ([6]; 24 h): 0%
- Ochratoxin A degraded ([6]; after 4 hours): 100%
- Ochratoxin A Degradation per U and h ([6]; per 1 U of enzyme (pNP standard test) and hour at 37° C.): 3 µmol
